Data: patent publication US20260242735A1 (UNIVERSIT T BASEL, published 2026)

Key:
human wild-type CD33 [1] = molecular target: T1, human wild-type CD33 (human, UniProt P20138 18-364); test: flow cytometry, Fab at 0.50 ug/ml on HEK293-T cells expressing CD33 against vector alone
T1 construct: also called SIGLEC3; P67
Procedure: (§1) Serial dilutions of each Fab were tested for immunoreactivity against cells expressing wild-type CD33 or vector alone. The optimal screening concentration for the Fabs was determined based on the raw signal values and signal-to-background calculations. Each point represents the mean of four replicates.

human CD33 F21A = human CD33 F21A (human, UniProt P20138 18-364); test: flow cytometry, alanine scan
Procedure: (§2) An alanine scan on human CD33 was performed to the determine the residues on CD33 that are involved in binding to the antibodies investigated. […] Briefly, a mutation library of CD33 was created by high-throughput, site-directed mutagenesis. Each residue was individually mutated to alanine, with alanine codons mutated to serine. The mutant library was arrayed in 384-well microplates and transiently transfected into HEK293-T. Following transfection, cells were incubated with the indicated antibodies (IgG or Fab) at concentrations pre-determined using an independent immunofluorescence titration curve on wild type CD33. […] Binding of each antibody to each mutant clone was determined in duplicates. For each point, background fluorescence was subtracted from the raw data, which were then normalized to antibody reactivity with wild type CD33.
(§3) Critical residues for antibody binding (outlined in dark grey) were residues whose mutations led to a binding of the test Abs of less than 20%. Additional secondary residues (outlined in light grey) were identified that led to a binding of the test Abs of between 20 and 40% as compared to the wild type CD33.

human CD33 L35A = human CD33 L35A (human, UniProt P20138 18-364); test: flow cytometry, alanine scan
Sequence of human CD33 L35A (P20138 18-364 L35A limits assumed): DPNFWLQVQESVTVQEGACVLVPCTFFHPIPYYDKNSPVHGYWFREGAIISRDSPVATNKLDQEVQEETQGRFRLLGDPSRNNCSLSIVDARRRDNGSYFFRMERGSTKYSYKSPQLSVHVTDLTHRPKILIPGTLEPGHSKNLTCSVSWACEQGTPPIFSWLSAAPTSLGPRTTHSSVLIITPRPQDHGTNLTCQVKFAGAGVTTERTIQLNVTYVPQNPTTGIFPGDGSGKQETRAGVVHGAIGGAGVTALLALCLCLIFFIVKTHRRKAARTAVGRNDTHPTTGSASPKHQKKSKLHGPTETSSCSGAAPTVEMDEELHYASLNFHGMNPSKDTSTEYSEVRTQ
Procedure: as §2, §3

human CD33 V39A = human CD33 V39A (human, UniProt P20138 18-364); test: flow cytometry, alanine scan
Sequence of human CD33 V39A (P20138 18-364 V39A limits assumed): as the sequence (P20138 18-364 L35A limits assumed) above, with A18L, V22A counted along it
Procedure: as §2, §3

human CD33 Q32A = human CD33 Q32A (human, UniProt P20138 18-364); test: flow cytometry, alanine scan
Sequence of human CD33 Q32A (P20138 18-364 Q32A limits assumed): as the sequence (P20138 18-364 L35A limits assumed) above, with Q15A, A18L counted along it
Procedure: as §2, §3

human CD33 S28A = human CD33 S28A (human, UniProt P20138 18-364); test: flow cytometry, alanine scan
Sequence of human CD33 S28A (P20138 18-364 S28A limits assumed): as the sequence (P20138 18-364 L35A limits assumed) above, with S11A, A18L counted along it
Procedure: as §2, §3

human CD33 L23A = human CD33 L23A (human, UniProt P20138 18-364); test: flow cytometry, alanine scan
Sequence of human CD33 L23A (P20138 18-364 L23A limits assumed): as the sequence (P20138 18-364 L35A limits assumed) above, with L6A, A18L counted along it
Procedure: as §2, §3

human CD33 T30A = human CD33 T30A (human, UniProt P20138 18-364); test: flow cytometry, alanine scan
Sequence of human CD33 T30A (P20138 18-364 T30A limits assumed): as the sequence (P20138 18-364 L35A limits assumed) above, with T13A, A18L counted along it
Procedure: as §2, §3

human CD33 E33A = human CD33 E33A (human, UniProt P20138 18-364); test: flow cytometry, alanine scan
Sequence of human CD33 E33A (P20138 18-364 E33A limits assumed): as the sequence (P20138 18-364 L35A limits assumed) above, with E16A, A18L counted along it
Procedure: as §2, §3

human CD33 T42A = human CD33 T42A (human, UniProt P20138 18-364); test: flow cytometry, alanine scan
Sequence of human CD33 T42A (P20138 18-364 T42A limits assumed): as the sequence (P20138 18-364 L35A limits assumed) above, with A18L, T25A counted along it
Procedure: as §2, §3

human CD33 V31A = human CD33 V31A (human, UniProt P20138 18-364); test: flow cytometry, alanine scan
Sequence of human CD33 V31A (P20138 18-364 V31A limits assumed): as the sequence (P20138 18-364 L35A limits assumed) above, with V14A, A18L counted along it
Procedure: as §2, §3

human CD33 G34A = human CD33 G34A (human, UniProt P20138 18-364); test: flow cytometry, alanine scan
Sequence of human CD33 G34A (P20138 18-364 G34A limits assumed): as the sequence (P20138 18-364 L35A limits assumed) above, with G17A, A18L counted along it
Procedure: as §2, §3

human CD33 C36A = human CD33 C36A (human, UniProt P20138 18-364); test: flow cytometry, alanine scan
Sequence of human CD33 C36A (P20138 18-364 C36A limits assumed): as the sequence (P20138 18-364 L35A limits assumed) above, with A18L, C19A counted along it
Procedure: as §2, §3

human CD33 P19A = human CD33 P19A (human, UniProt P20138 18-364); test: flow cytometry, alanine scan
Sequence of human CD33 P19A (P20138 18-364 P19A limits assumed): as the sequence (P20138 18-364 L35A limits assumed) above, with P2A, A18L counted along it
Procedure: as §2, §3

human CD33 D18A = human CD33 D18A (human, UniProt P20138 19-364); test: flow cytometry, alanine scan
Sequence of human CD33 D18A (P20138 18-364 D18A limits assumed): as the sequence (P20138 18-364 L35A limits assumed) above, with D1A, A18L counted along it
Procedure: as §2, §3

human CD33 C41A = human CD33 C41A (human, UniProt P20138 18-364); test: flow cytometry, alanine scan
Sequence of human CD33 C41A (P20138 18-364 C41A limits assumed): as the sequence (P20138 18-364 L35A limits assumed) above, with A18L, C24A counted along it
Procedure: as §2, §3

human CD33 N20A = human CD33 N20A (human, UniProt P20138 18-364); test: flow cytometry, alanine scan
Sequence of human CD33 N20A (P20138 18-364 N20A limits assumed): as the sequence (P20138 18-364 L35A limits assumed) above, with N3A, A18L counted along it
Procedure: as §2, §3

human CD33 V29A = human CD33 V29A (human, UniProt P20138 18-364); test: flow cytometry, alanine scan
Sequence of human CD33 V29A (P20138 18-364 V29A limits assumed): as the sequence (P20138 18-364 L35A limits assumed) above, with V12A, A18L counted along it
Procedure: as §2, §3

human CD33 P40A = human CD33 P40A (human, UniProt P20138 18-364); test: flow cytometry, alanine scan
Sequence of human CD33 P40A (P20138 18-364 P40A limits assumed): as the sequence (P20138 18-364 L35A limits assumed) above, with A18L, P23A counted along it
Procedure: as §2, §3

human CD33 L38A = human CD33 L38A (human, UniProt P20138 18-364); test: flow cytometry, alanine scan
Sequence of human CD33 L38A (P20138 18-364 L38A limits assumed): as the sequence (P20138 18-364 L35A limits assumed) above, with A18L, L21A counted along it
Procedure: as §2, §3

human CD33 H45A = human CD33 H45A (human, UniProt P20138 18-364); test: flow cytometry, alanine scan
Sequence of human CD33 H45A (P20138 18-364 H45A limits assumed): as the sequence (P20138 18-364 L35A limits assumed) above, with A18L, H28A counted along it
Procedure: as §2, §3

human CD33 V37A = human CD33 V37A (human, UniProt P20138 18-364); test: flow cytometry, alanine scan
Sequence of human CD33 V37A (P20138 18-364 V37A limits assumed): as the sequence (P20138 18-364 L35A limits assumed) above, with A18L, V20A counted along it
Procedure: as §2, §3

human CD33 E27A = human CD33 E27A (human, UniProt P20138 18-364); test: flow cytometry, alanine scan
Sequence of human CD33 E27A (P20138 18-364 E27A limits assumed): as the sequence (P20138 18-364 L35A limits assumed) above, with E10A, A18L counted along it
Procedure: as §2, §3

human CD33 W22A = human CD33 W22A (human, UniProt P20138 18-364); test: flow cytometry, alanine scan
Sequence of human CD33 W22A (P20138 18-364 W22A limits assumed): as the sequence (P20138 18-364 L35A limits assumed) above, with W5A, A18L counted along it
Procedure: as §2, §3

human CD33 F43A = human CD33 F43A (human, UniProt P20138 18-364); test: flow cytometry, alanine scan
Sequence of human CD33 F43A (P20138 18-364 F43A limits assumed): as the sequence (P20138 18-364 L35A limits assumed) above, with A18L, F26A counted along it
Procedure: as §2, §3

human wild-type CD33 [2] = molecular target: T1, human wild-type CD33; test: flow cytometry, Fab at 1.00 ug/ml on HEK293-T cells expressing CD33 against vector alone
Procedure: as §1

human wild-type CD33 [3] = molecular target: T1, human wild-type CD33; test: flow cytometry, IgG at 0.25 ug/ml on HEK293-T cells expressing CD33 against vector alone
Procedure: Binding of the antibodies to the transfected cells and the optimal assay conditions were evaluated in 384-well format. Detection of cellular expression was measured via high-throughput flow cytometry. Serial dilutions of each antibody were tested for immunoreactivity against cells expressing CD33 or vector alone. The optimal screening concentration for each antibody was determined based on the raw signal values and signal-to-background calculations. Each point represents the mean of four replicates.

T1 sequence (P20138 18-364 limits assumed): as the sequence (P20138 18-364 L35A limits assumed) above, with A18L counted along it
Sequence of human CD33 F21A (P20138 18-364 F21A limits assumed): as the sequence (P20138 18-364 L35A limits assumed) above, with F4A, A18L counted along it

B1: Refmab #5 Fab fragment (Fab, V domains shown)
VH: QVQLVQSGAEVKKPGASVKVSCKASGYTFTNYDINWVRQAPGQGLEWIGWIYPGDGSTKYNEKFKAKATLTADTSTSTAYMELRSLRSDDTAVYYCASGYEDAMDYWGQGTTVTVSS
VL: DIQMTQSPSSLSASVGDRVTINCKASQDINSYLSWFQQKPGKAPKTLIYRANRLVDGVPSRFSGSGSGQDYTLTISSLQPEDFATYYCLQYDEFPLTFGGGTKVEIK
Human wild-type CD33 [1]
  Signal:Background: 17 signal:background ratio

B2: Refmab #6 (antibody, V domains shown)
VH: QVQLQQPGAEVVKPGASVKMSCKASGYTFTSYYIHWIKQTPGQGLEWVGVIYPGNDDISYNQKFQGKATLTADKSSTTAYMQLSSLTSEDSAVYYCAREVRLRYFDVWGQGTTVTVSS
VL: EIVLTQSPGSLAVSPGERVTMSCKSSQSVFFSSSQKNYLAWYQQIPGQSPRLLIYWASTRESGVPDRFTGSGSGTDFTLTISSVQPEDLAIYYCHQYLSSRTFGQGTKLEIK
notes: The alanine scan used IgG or Fab
Human CD33 F21A
  Mean % WT Binding: 88.1 % of WT
Human CD33 L35A
  Mean % WT Binding: 97.2 % of WT
Human CD33 V39A
  Mean % WT Binding: 79.2 % of WT
Human CD33 Q32A
  Mean % WT Binding: 91.3 % of WT
Human CD33 S28A
  Mean % WT Binding: 89.4 % of WT
Human CD33 L23A
  Mean % WT Binding: 41.4 % of WT
Human CD33 T30A
  Mean % WT Binding: 104 % of WT
Human CD33 E33A
  Mean % WT Binding: 90 % of WT
Human CD33 T42A
  Mean % WT Binding: 36.6 % of WT
Human CD33 V31A
  Mean % WT Binding: 105 % of WT
Human CD33 G34A
  Mean % WT Binding: 100 % of WT
Human CD33 C36A
  Mean % WT Binding: 110 % of WT
Human CD33 P19A
  Mean % WT Binding: 87.4 % of WT
Human CD33 D18A
  Mean % WT Binding: 39.5 % of WT
Human CD33 C41A
  Mean % WT Binding: 4.5 % of WT
Human CD33 N20A
  Mean % WT Binding: 92.9 % of WT
Human CD33 V29A
  Mean % WT Binding: 112 % of WT
Human CD33 P40A
  Mean % WT Binding: 55.5 % of WT
Human CD33 L38A
  Mean % WT Binding: 105 % of WT
Human CD33 H45A
  Mean % WT Binding: 87.8 % of WT
Human CD33 V37A
  Mean % WT Binding: 111 % of WT
Human CD33 E27A
  Mean % WT Binding: 92.6 % of WT
Human CD33 W22A
  Mean % WT Binding: 3.8 % of WT
Human CD33 F43A
  Mean % WT Binding: 34.6 % of WT

B3: Refmab #2 Fab fragment (Fab, V domains shown)
VH: QVQLVQSGAEVKKPGSSVKVSCKASGGTFSDYAISWVRQAPGQGLEWMGRIIPILGVADYAQKFQGRVTITADKSTRTAYMELSSLRSEDTAVYYCARNWADAFDIWGQGTMVTVSS
VL: DIQLTQSPSSLSASVGDRVTITCRASQGISSVLAWYQQKPGKAPKLLIYDASSLESGVPSRFSGSGSGTDFTLTISSLQPEDFATYYCQQFDSSITFGQGTKLEIK
Human wild-type CD33 [2]
  Signal:Background: 7 signal:background ratio

B4: Refmab #4 (antibody, human IgG1, V domains shown)
VH: QVQLVQSGAEVKKPGESVKVSCKASGYTFTNYGMNWVKQAPGQGLEWMGWINTYTGEPTYADKFQGRVTMTTDTSTSTAYMEIRNLGGDDTAVYYCARWSWSDGYYVYFDYWGQGTSVTVSS
VL: DIVMTQSPDSLTVSLGERTTINCKSSQSVLDSSTNKNSLAWYQQKPGQPPKLLLSWASTRESGIPDRFSGSGSGTDFTLTIDSPQPEDSATYYCQQSAHFPITFGQGTRLEIK
notes: Full-length MAb format, human IgG1 Fc silent (PG-LALA)
Human wild-type CD33 [3]
  Signal:Background: 38 signal:background ratio

B5: Refmab #4 Fab fragment (Fab, V domains shown)
VH: B4 VH
VL: B4 VL
Human wild-type CD33 [1]
  Signal:Background: 33 signal:background ratio

B6: Refmab #3 Fab fragment (Fab, V domains shown)
VH: QVQLVQSGAEVKKPGSSVKVSCKASGYTFTDYNMHWVRQAPGQGLEWIGYIYPYNGGTGYNQKFKSKATITADESTNTAYMELSSLRSEDTAVYYCARGRPAMDYWGQGTLVTVSS
VL: DIQMTQSPSSLSASVGDRVTITCRASESVDNYGISFMNWFQQKPGKAPKLLIYAASNQGSGVPSRFSGSGSGTDFTLTISSLQPDDFATYYCQQSKEVPWTFGQGTKVEIK
Human wild-type CD33 [2]
  Signal:Background: 12 signal:background ratio
